Test results as given in paper PMC12599289, “Kinetic and homology model analysis of diaminopimelate decarboxylase from Cyanothece sp. ATCC 51142: unveiling a key enzyme in lysine biosynthesis” (Bioscience Reports, 2025).

Substrate: NC(CCCC(N)C(=O)O)C(=O)O
Assay: purified protein
Format: biochemical, Crocosphaera subtropica
Conditions: 0.1 mM PLP, 20 mM Tris-HCl pH 8.0, methods say room temperature, abstract says 30°C, DAP 0.5-15 mM

B1: CsDAPDC (Crocosphaera subtropica ATCC 51142) (protein)
chain: MIATPTKTPHTGQDYLKIKINATDSTKRSPNQSLLPLTANINAHDHLEIGGCDLQTLVEQFGSPLYILDEMTLRTACRQYRDNFQTYYKGESQVIYASKAWSCLAVVGVIARENLGFDVVSGGELYTTQKALTQLGYSCQEIAKKIYFHGNNKSEAELKEAIKVGCTIIVDNWLELQTLAQLGNDTPNLTIPILIRLTPGIECHTHEYIRTGHLDSKFGFDPNQLEAVFTYISQQTSLDCRGLHAHIGSQIFERQPHQDLAGVLVEWLKIGREYGLNLSELNIGGGLGICYTEEDDPPSIEEWVKAVSEAVMKACQRCEIDLPKLIAEPGRSLIGSACVTAYTVGSRKEIPELRTYIAVDGGMSDNPRPITYQSLYRVALANRMSAEISETVTIAGKHCESGDIVIKDAQLPQTHPGDILVIMGTGAYNYSMASNYNRLPRPAAVMVNQGEANLIVRRETYDDLIRQDCLPQRLLP
notes: tag removal not mentioned; dimer only from homology model
Work on B1 yielded a Km of 1200 ± 170 µM and a kcat of 1.68 s⁻¹.
